Assay results taken from patent publication US20200330603A1, “PEPTIDES FOR RENAL THERAPY” (FRED HUTCHINSON CANCER RESEARCH CENTER, priority 2015, published 2020).
“And” between values parts separate entries of the source, which are not always exact repeats. Equal entries are not always repeated. Ends that are not written are not given here.

Tests used:
[1] = Plasma BUN, assessment of renal injury (Example 14); type: in vivo, mice
Method: (§1) This example illustrates assessment of renal injury by peptides of this disclosure. Mice were injected intravenously at a dose of 100 nmol, which is approximately 16 mg/kg. PBS was administered as a negative control. At 24 hours post-peptide administration, mice were euthanized and plasma blood urea nitrogen (BUN) and plasma creatinine were measured. The blood urea nitrogen (BUN) assay was performed to assess renal toxicity with a commercially available kit. Plasma creatinine concentrations were determined using the colorimetrically corrected Jaffe reaction method. Additionally, the kidneys from these mice were removed, sectioned, and stained using periodic acid Schiff (PAS). […] Histological analysis corroborated the mRNA/protein data.

[2] = Plasma creatinine, Jaffe reaction method (Example 14); type: in vivo, mice; details: 100 nmol iv
Method: as §1

[3] = Kidney histology, periodic acid Schiff (PAS) stain; type: in vivo, mice; details: 24 hours after intravenous administration of 100 nmol
Method: as §1

[4] = Blood urea nitrogen (BUN) assay in plasma, renal biocompatibility (Example 4); type: in vivo, mice; details: 100 nmol per mouse intravenously, after 24 hours, one value per mouse
Method: This example describes renal biocompatibility of peptides of this disclosure. The peptides of SEQ ID NO: 18, SEQ ID NO: 20, SEQ ID NO: 21, SEQ ID NO: 26, SEQ ID NO: 36, SEQ ID NO: 39, SEQ ID NO: 45 and SEQ ID NO: 53 were intravenously dosed into mice at 100 nmol per mouse. After 24 hours, mice were anesthesized with Ketamine-Xylazine and euthanized. Plasma and kidneys were removed as quickly as possible after euthanization. A blood urea nitrogen (BUN) assay was performed to assess renal toxicity with a commercially available kit.
The average BUN concentration in plasma for naïve mice was 25 mg/dL, with a standard error of 2 mg/dL. The average BUN concentration in plasma for peptide-dosed mice was 21, with a standard error of 1 mg/dL.

[5] = Peptide stability to a reducing agent (DTT), RP-HPLC; type: physicochemical; details: 10 mM DTT in PBS, room temperature, 30 minutes
Method: (§2) This example describes peptide stability in the presence of pepsin, trypsin, a reducing agent, or elevated temperature. Peptides were first suspended in 500 µl of ddH2O to a stock concentration of 2 mg/ml. […] These reactions were then quenched with 5 μg of soybean trypsin inhibitor (I) and, in some cases, 10 mM dithiothreitol (DTT). […] Temperature stability was tested by incubating peptides in non-reducing conditions at 70° C. for 1 hour. Stability was evaluated by RP-HPLC.

[6] = system: trypsin; experiment: Peptide stability in the presence of trypsin, RP-HPLC; type: in vitro ADME; details: 5 μg trypsin, pH 7.0, 30 minutes at 37.5° C.
Method: as §2

[7] = system: TNFa mRNA; experiment: Stress-induced mRNA by RT-PCR, TNFa; type: in vivo, mice; details: four hours post-peptide administration
Method: (§3) At four hours post-peptide administration, potential renal injury was assessed by measuring three stress-induced mRNAs (MCP-1, NGAL, and TNFa).

[8] = system: HO-1 mRNA; experiment: mRNA by RT-PCR, HO-1; type: in vivo, mice; details: four hours post-peptide administration
[9] = system: MCP-1 mRNA; experiment: Stress-induced mRNA by RT-PCR, MCP-1; type: in vivo, mice; details: four hours post-peptide administration
Method: as §3

[10] = system: pepsin; experiment: Peptide stability in the presence of pepsin, RP-HPLC; type: in vitro ADME; details: 20 μg pepsin, pH 1.05, 30 minutes at 37.5° C.
Method: as §2

[11] = system: NGAL mRNA; experiment: Stress-induced mRNA by RT-PCR, NGAL; type: in vivo, mice; details: four hours post-peptide administration
Method: as §3

[12] = Whole body autoradiography of 14C labeled peptides, renal cortex and blood; type: in vivo, mice; details: for Signal ratio Kidney:Blood (3 hours) / Signal ratio Kidney:Blood (24 hours): renal cortex vs blood from the ventricle, 100 nmol iv; for Pixel density-Bkg/area (3 hours) / Pixel density-Bkg/area (24 hours): renal cortex, 100 nmol 14C labeled peptide iv
From the text: This example describes radiolabeling of peptides of this disclosure. Several knotted peptides were radiolabeled by reductive methylation with ^14C formaldehyde and sodium cyanoborohydride with standard techniques. The sequences were engineered to have the amino acids, “G” and “S” at the N terminus. See Methods in Enzymology V91:1983 p. 570 and JBC 254(11):1979 p. 4359. An excess of formaldehyde was used to ensure complete methylation (dimethylation of every free amine). The labeled peptides were isolated via solid-phase extraction on Strata-X columns (Phenomenex 8B-S100-AAK), rinsed with water with 5% methanol, and recovered in methanol with 2% formic acid. Solvent was subsequently removed in a blowdown evaporator with gentle heat and a stream of nitrogen gas. The final product was verified and characterized by high performance liquid chromatography (HPLC).
This example illustrates accumulation of peptides of the present disclosure in kidneys measured by whole body autoradiography. Peptides of the present disclosure were radiolabeled as described in EXAMPLE 2. 100 nmol of ^14C labeled peptides were administered intravenously in mice. Radiolabeled peptide signal was quantified in the renal cortex and blood from the ventricle in 2-3 sections per mouse in 2 mice total. Whole body autoradiography analysis was performed with AIDA.
SEQ ID NO: 55 and SEQ ID NO: 119 ([…]), a linearized version of SEQ ID NO: 55, were radiolabeled with ^14C as described in EXAMPLE 2 and administered intravenously in mice at a dose of 100 nmol. Radiolabeled peptide signal was quantified in the renal cortex and blood from the ventricle in 2-3 sections per mouse in 2 mice total. Whole body autoradiography analysis was performed with AIDA.

[13] = Temperature stability at 70° C., RP-HPLC; type: physicochemical; details: non-reducing conditions, 70° C. for 1 hour
Method: as §2

[14] = Competitive renal uptake studies, fluorescence imaging of whole organs; type: in vivo, mice; details: 2 nmol SEQ ID NO: 4-AF647 co-injected with 100 or 2000 nmol competitor, 1 hour
Method: This example describes competitive uptake studies of peptides of this disclosure in kidneys. Peptides of this disclosure were compared to known kidney homers (“competitors”) to assess the efficiency and strength of kidney targeting. Three competitors were tested against a peptide of SEQ ID NO: 4, and kidney uptake was quantified by fluorescence imaging of whole organs on a Spectrum IVIS imager.
Kidneys from uninjected mice were used as a negative control. Fluorescence signal in each group was quantified to determine the average radiant efficiency in the kidneys from three mice per cohort. Data are shown as mean and error bars indicate standard deviation. A p-value of 0.0081 was calculated by a T-test, and the error bars indicate standard deviation. In this experiment, the unlabeled SEQ ID NO: 4 peptide competed with the SEQ ID NO: 4-AF647 as shown by decreased fluorescence and thus, decreased accumulation of the dye labeled peptide in the kidney. […] Fluorescence signal in each group was quantified to determine the average radiant efficiency in the kidneys from three mice per cohort. Data are shown as mean and error bars indicate standard deviation. Kidney uptake of a peptide of SEQ ID NO: 4-AF647 was not dampened by SEQ ID NO: 121 peptide even at the highest ratio of competitor. […] Fluorescence signal in each group was quantified to determine the average radiant efficiency in the kidneys from three mice per cohort. Data are shown as mean and error bars indicate standard deviation. A p-value of 0.015 was calculated by a Student's unpaired t-test.

[15] = Table 3, 100 nmol iv (approximately 16 mg/kg), 24 hours post-peptide administration
[16] = Table 3, 24 hours post-peptide administration
[17] = Table 4, 100 nmol iv, time not stated for this column (mRNAs at four hours)
[18] = Table 4, time not stated for this column (mRNAs at four hours)

Sequence	Plasma BUN [1, 15]	Plasma Creatinine [2, 16]	renal physiology (PAS histology, FIG. 24) [3]	Peptide BUN [4]	Reduction [5]	Trypsin [6]	Plasma BUN [1, 17]	mTNFa/GAPDH [7]	Plasma Creatinine [2, 18]	mHO-1/GAPDH [8]	mMCP-1/GAPDH [9]	Pepsin [10]	mNGAL/GAPDH [11]	Signal ratio Kidney:Blood (3 hours) [12]	Signal ratio Kidney:Blood (24 hours) [12]	Pixel density-Bkg/area (3 hours) [12]	Pixel density-Bkg/area (24 hours) [12]	Temperature (70° C.) [13]	competition with kidney uptake of SEQ ID NO: 4-AF647 (FIG. 11) [14]
GGYSRCQLQGFNCVVRSYGLPTIPCCRGLTCRSYFPGSTYGRCQRY [SEQ ID NO: 53]	20.5 mg/dL	0.35 mg/dL	normal renal physiology	19 mg/dL and 22 mg/dL	–	–	–	–	–	–	–	–	–	–	–	–	–	–	–
GSDRDSCIDKSRCSKYGYYQECQDCCKKAGHNGGTCMFFKCKCA [SEQ ID NO: 21]	20 mg/dL	0.33 mg/dL	normal renal physiology	23 mg/dL and 17 mg/dL	Not Resistant	Partially Resistant	–	–	–	–	–	–	–	–	–	–	–	–	–
GSGDCLPHLKRCKENNDCCSKKCKRRGANPEKRCR [SEQ ID NO: 18]	19.5 mg/dL	0.43 mg/dL	normal renal physiology	21 mg/dL and 18 mg/dL	Partially Resistant	Partially Resistant	–	–	–	–	–	–	–	–	–	–	–	–	–
GSQDKCKKVYENYPVSKCQLANQCNYDCKLDKHARSGECFYDEKRNLQCICDYCEY [SEQ ID NO: 39]	20.5 mg/dL	0.32 mg/dL	normal renal physiology	23 mg/dL and 18 mg/dL	Not Resistant	Partially Resistant	–	–	–	–	–	–	–	–	–	–	–	–	–
GSQFTDVKCTGSKQCWPVCKQMFGKPNGKCMNGKCRCYS [SEQ ID NO: 26]	19 mg/dL	0.33 mg/dL	normal renal physiology	19 mg/dL	Not Resistant	Partially Resistant	–	–	–	–	–	–	–	–	–	–	–	–	–
GSQFTNVSCTTSRECWSVCQRLHNTSRGRCMNRRCRCYS [SEQ ID NO: 5]	–	–	–	–	Resistant	Resistant	23 mg/dL	2.55	0.23 mg/dL	0.62	0.79	Resistant	1.76	27.2	6.4	1.40E+07	1.81E+06	–	–
GSQKILSNRCNNSSECIPHCIRIFGTRAAKCINRKCYCYP [SEQ ID NO: 20]	25 mg/dL	0.5 mg/dL	normal renal physiology	29 mg/dL and 21 mg/dL	Resistant	Partially Resistant	–	–	–	–	–	–	–	–	–	–	–	–	–
GSSCARPRENCNRMNILCCRGECVCPTFGDCFCYGD [SEQ ID NO: 54]	–	–	–	–	–	–	26 mg/dL	2.42	0.26 mg/dL	0.65	0.74	–	1.58	0.8	7.2	1.48E+06	1.95E+06	–	–
GSSCEPGTTFRDRCNTCRCGSDGRSAACTLRACPQ [SEQ ID NO: 46]	–	–	–	–	–	–	22 mg/dL	2.87	0.29 mg/dL	0.58	0.64	–	1.39	4.7	6	8.83E+05	1.49E+06	–	–
GSSFGLCRLRRGFCARGRCRFPSIPIGRCSRFVQCCRRVW [SEQ ID NO: 45]	21.5 mg/dL	0.39 mg/dL	normal renal physiology	21 mg/dL and 22 mg/dL	–	–	–	–	–	–	–	–	–	–	–	–	–	–	–
GSVFINVKCRGSPECLPKCKEAIGKSAGKCMNGKCKCYP [SEQ ID NO: 36]	21.5 mg/dL	0.4 mg/dL	normal renal physiology	22 mg/dL and 21 mg/dL	Not Resistant	Not Resistant	–	–	–	–	–	Resistant	–	–	–	–	–	Resistant	–
KKEEEKKEEEKKEEEKK [SEQ ID NO: 121, reference compound]	–	–	–	–	–	–	–	–	–	–	–	–	–	–	–	–	–	–	failed to compete
